Measurements published in patent publication US20170101664.

Target: biosensor SEQ ID NO:47 (KbiotinkkafpaayiaeG-photo-cleavable linker-…rrrqrrkkr)

B1: Lyn kinase (protein)
chain: MGCIKSKGKDSLSDDGVDLKTQPVRNTERTIYVRDPTSNKQQRPVPESQLLPGQRFQTKDPEEQGDIVVALYPYDGIHPDDLSFKKGEKMKVLEEHGEWWKAKSLLTKKEGFIPSNYVAKLNTLETEEWFFKDITRKDAERQLLAPGNSAGAFLIRESETLKGSFSLSVRDFDPVHGDVIKHYKIRSLDNGGYYISPRITFPCISDMIKHYQKQADGLCRRLEKACISPKPQKPWDKDAWEIPRESIKLVKRLGAGQFGEVWMGYYNNSTKVAVKTLKPGTMSVQAFLEEANLMKTLQHDKLVRLYAVVTREEPIYIITEYMAKGSLLDFLKSDEGGKVLLPKLIDFSAQIAEGMAYIERKNYIHRDLRAANVLVSESLMCKIADFGLARVIEDNEYTAREGAKFPIKWTAPEAINFGCFTIKSDVWSFGILLYEIVTYGKIPYPGRTNADVMTALSQGYRMPRVENCPDELYDIMKMCWKEKAEERPTFDYLQSVLDDFYTATEGQYQQQP
- phosphorylation in the in vitro kinase assay: Lyn kinase did not phosphorylate the biosensor
